Measured values: the DeepSol protein solubility set

Experiment: soluble on expression in E. coli; label from the status in PepcDB or PDB records

## MGSDKIHHHHHHMLIISPKYLNGKIEIEKGERVGLVGKNGSGKTTLILSALCLDQTTSNVTVDDLDFCKEKDYSKISAVLQDVSSQILASTLKDEIELMKRFHSVDDKIARNLMGHYYEVEFNKLSDGYKKRYAIASVLASNPEYILLDEPFANLDDKGVKSVSTIVPKNSLIAEHRIEELRKLVDRVYMIRNNKEINEISKEKLFDIEFLRKEGLRGFSLPKINSELGNEILNVNIDNFTIKIREGEILCLLGRNGSGKTTILRKLSKKIFVIFQEVDLQFFYFTVREIVRSKRVLSLFKLENLADKSPYALSFGQKMRILIASAFSSDSRVIGLDEPSVGMDGEALLSFYEMVKMLKEQKRGLILATHDKDIISLCDTRIVID
  soluble on expression in E. coli: not soluble

## MGSDKIHHHHHHVKKLLNTLFINQSDSYLALDGGNVLVKADGQVLGRVPLHNLEGIVAFGYTGASPALMGHCAENGIALTFMTKNGRFLARVIGESRGNVVLRKTQYRRSDDEVASARLAKNFILGKLYNQKWMLERMTRDYPLRLDVERFKTTSQDMTETMREIQVCENLERLRGLEGTIAVRYNRLFDSMILQQKEDFHFKGRTRRPPLDRVNAMLSFAYSLLARDVSAALEAVGLDAYVGFLHRERPGRASLALDVMEELRGIYADRFVLSLINKKVIQGKDFLQKENGAVIMTEEGRKTFLTAWQKKKQETIQHPYLKEKMMWGLVPYEQALLLARHLRDDLEAYPPFLYK
  soluble on expression in E. coli: not soluble

## MTDFLEIRPLTKEAFTPFGDVIETTPSSMRHINGGQTERHHALSAPEAAGEGARIILNIFRGQPRVFPHKIDMMERHPLGSQSFSPLSGRPFLVVVAQDDGGRPARPQVFLARGDQGVNYRRNVWHYPLMPLQAVSDFLVADREGPGNNLEEYFFDEPFMIAEPSL
  soluble on expression in E. coli: not soluble

## MSPDKQAAALPRRERNRQAAAASPENSRGKGRRGQRGKNRGCVLTAIHLNVTDLGLGYETKEELIFRYCSGSCEAAETMYDKILKNLSRSRRLTSDKVGQACCRPVAFDDDLSFLDDSLVYHILRKHSAKRCGCI
  soluble on expression in E. coli: soluble

## MDPLDRLIQLANLQGRLDQRCQLQGSWALEHPQAVPGEATFHIVMAGTCYCEFLDGGRLDLHPGDLILLPRGTPHLLRSDSPAQPCEPTVEHRGSIPLYQLNGPGEALDMLCGSYRYHAGASLFGALPERLLVHMDESTQQPLRALIGLMREEAESTRSGARSIIDALATALFALALRAYLDRQPLGDGLFGLLGDARLGRALRAMLERPEHAWTLEQLAQQAAMSRASFVRAFSALGGTSPWNLLTRIRMEKARGLLRQTQKSLLDIAAETGYQSEAAFSRNFRQAFGESPGRFRRQADSAR
  soluble on expression in E. coli: not soluble

## GPGSMDVLVPRAASSGAVGRTPAARTFSAAPPSASSSLCVVGSADHGLKVFNLCTMRELKTLYTKTCGHTEWVTACRFLSDRRVISGGMDSKLCLWNDVTRGGPGRCVDLLGHTGSISQVEVNERHGRSIAMSSSYDRTIRVWELDGIAGGREMGCLSGHKGPVTQFSWLETEVLSGDRQGTVKLWDVETAQCHLTASSKRGQIGSLAHLVHPGVGHLALFGDQGGALTVVDARGPSSAKPLFQDVLHPGGMVTFIRAPSPTAVSAPLIVTCGADKRIIVRDARHNFAEVCAITDHDDFVYSMEVIGNILLSGAGNGRLLVHDVETGELLYELKANAAAVREMFASPSVLVAAGDDGNAKVFDFM
  soluble on expression in E. coli: not soluble

## MGSDKIHHHHHHMEFTDLQIFIHLSDTKNFTKTATQNHMSPSTLSRQIQRLEDELGKTLFIRDNRQVKLTEYGEKFLQFAKTEWQNWQQFKQQLKDESDELCGEIKLFCSVTASYSHLPHVLKEFRQRYPKVEIQLTTGDPALALELIQAQQVDLALAGKPNNLPSSVVFHKIDDISLSLIAPRVACLATQLLQEKPIDWQQMPFIFPVEGHARQRIEQWLREKQIKHPKIYATVAGHEGIVPMVGLGFGLAMLPDAVIDSSPMNNQISRLNLDKPIEPFELGICTQKRNLEQPLVRAFWAMLE
  soluble on expression in E. coli: not soluble

## MKTINSVDTKEFLNHQVANLNVFTVKIHQIHWYMRGHNFFTLGEKMDDLYSEFGEQMDEVAERLLAIGGSPFSTLKEFLENASVEEAPYTKPKTMDQLMEDLVGTLELLRDEYKQGIELTDKEGDDVTNDMLIAFKASIDKHIWMFKAFLGKAPLE
  soluble on expression in E. coli: soluble

## LYVGSLHFNITEDMLRGIFEPFGKIDNIVLMKDSDTGRSKGYGFITFSDSECARRALEQLNGFELAGRPMRVGHVTERLDGG
  soluble on expression in E. coli: soluble

## MGSDKIHHHHHHMNRRDLLVGLGAATLVPKASWADAHNPAFLSAAQAPDGNYHLCGLDPRGDVVFSIPLPGRGHAAAAHPTRPEAVAFARRPGRFALILDCVTGQETARLLPPPNRHFYGHGTFSSDGDVLFTTENDLTTLEGRIGLWDAAHGYVRLGDVPSGGIGPHDIARLPGTETLVIANGGIATHPDSGRTPLNPATMRSNLAYMRTDGTLLERVELDVTLRQNSIRHLSIRDDGLVSAGMQWNGAEGEHPPLTLLHRIGAAPRLLAAPTQTHRQLDGYVGSISFDQAGAHVAVTSPRGGTVHIFDVNSGAFAGLITAEDICGLALSHRAGLIATTGQGITGFVAQDDLTQMRHSSWRWDNHIVAI
  soluble on expression in E. coli: not soluble

## DGDQCETSPCQNQGKCKDGLGEYTCTCLEGFEGKNCELFTRKLCSLDNGDCDQFCHEEQNSVVCSCARGYTLADNGKACIPTGPYPCGKQTLERRKRSVAQATSSSGEAPDSITWKPYDAADLDPTENPFDLLDFNQTQPERGDNNLTR
  soluble on expression in E. coli: soluble

## MGSDKIHHHHHHMNFEVLVKHISTIQNTLQAQAAHAVNLALTSRNWLMGCYIVEFEQNGEDRAAYGEQLLKKLEQRLKTKGLNERRFREFRRLYLVYPQLKESVTQYIASQIQIRQSLTAEFTEPIRRLVTAESENGVWKLSTEHPQTETWMIPADRLFNRLSSTHLNTISGIENPIKRAFYEMETIRGCWSVKELERQIASLYYERSGLSKNKEALSALVQQQVTLLQPKDVINTPVTLEFLGLNERALVTENDLEQSILDNLQHFLLEMGHGFCFEARQKRILIDEDYFFADLVFYHRILKCHIIVELKIDKFRHEYASQLNMYLNYFKAEVMQPDDNPPIGILLCTEKGDTLVKYATAGLDPNIFVQKYMIELPSEEEIKRFILGVNF
  soluble on expression in E. coli: not soluble

## MLHTLHRSPWLTDFAALLRLLSEGDELLLLQDGVTAAVDGNRYLESLRNAPIKVYALNEDLIARGLTGQISNDIILIDYTDFVRLTVKHPSQMAW
  soluble on expression in E. coli: soluble

## MRWAPVTYTVGSSSVGSFPAVQWRGINTPTQIVFSLSSSEVRSYRLRIFVPLAQVSARPQIAVNARWNGPVPAAPNQPKTRGITRGTTRGNNTLCEVDIPATALQAGSNRIAISLASGSPDNGFLSPAIVYDSVQLVAPLEHHHHHH
  soluble on expression in E. coli: not soluble

## MLRGIVVVDFSHYLPGPFASWRLAQLGAEVIKIEPPSGDRLRPFAEGRLFAAYNAGKKSIGLDLKTDAGREQARRLAARADVVIESFRPGVMARLGLGYDDMCRMNEQIIYCSISGFGQQSGRSLLGSHDLNYMALSGLLAQLADERGRPVHPKITLADFIGGMAAAERILAALFARERTGKGAHLDVSLVDGLAAMMAGHFAIEHGGGPKTGLSELSGEVVCYQLYETKDGRYMSLAALEPHFWRRFCEAVGHPEWTEAQWAPARSGEAVYDELAALFREKTLDEWSAFAEAVDVCLAPVLETGEAKALFADSRLRHLVRLQPGGVWTAAHGPDGQWGGGEPPKVNEHAHLVKGEE
  soluble on expression in E. coli: not soluble

## MAQTAFHVEFNKAPEDQATKTHNRWHPDIPMVEWFNPGDEFRVECYDWTGGQISNDDSANDVRDVDLTRVHYLSGPFGVKGAEPGDLLVVDLLDVGALPESAWGFTGIFARENGGGFLCEHFPDARKACWDFHGIYTTSRHVPNVRWPGIIHPGLIGCLPDRALLERANKREAALLATDPNRVPPLLAPSYADTALMGQMSGEAARKAGAEAWRTVPPREHGGNCDIKNLSRGSRVYFPVYVKGGGLSMGDIHWSQGDGEITFCGAIEMAGFLDIRVDLIKDGINKYGIVNPIFKPSPIEPHFAEYLVFEGISVDEHTGEQYYLDAHVAYRRACLNAIEYLKKFGYTSEQAYIILGTAPVEGRISGIVDIPNACCTLAIPTEIFDFDIRPNAAGPSAKVGKAKVAVTSLEHHHHHH
  soluble on expression in E. coli: not soluble

## SLRYIRQLCCVSLLCLSGSAVAANVRLQVEGLSGQLEKNVRAQLSTIESDEVTPDRRFRARVDDAIREGLKALGYYQPTIEFDLRPPPKKGRQVLIAKVTPGVPVLIGGTDVVLRGGARTDKDYLKLLDTRPAIGTVLNQGDYENFKKSLTSIALRKGYFDSEFTKAQLGIALGLHKAFWDIDYNSGERYRFGHVTFEGSQIRDEYLQNLVPFKEGDEYESKDLAELNRRLSATGWFNSVVVAPQFDKARETKVLPLTGVVSPRTENTIETGVGYSTDVGPRVKATWKKPWMNSYGHSLTTSTSISAPEQTLDFSYKMPLLKNPLEQYYLVQGGFKRTDLNDTESDSTTLVASRYWDLSSGWQRAINLRWSLDHFTQGEITNTTMLFYPGVMISRTRSRGGLMPTWGDSQRYSIDYSNTAWGSDVDFSVFQAQNVWIRTLYDRHRFVTRGTLGWIETGDFDKVPPDLRFFAGGDRSIRGYKYKSIAPKYANGDLKGASKLITGSLEYQYNVTGKWWGAVFVDSGEAVSDIRRSDFKTGTGVGVRWESPVGPIKLDFAVPVADKDEHGLQFYIGLGPEL
  soluble on expression in E. coli: soluble

## MGHHHHHHENLYFQGMKKEKVEQILAEFQLQEEDLKKVMRRMQKEMDRGLRLETHEEASVKMLPTYVRSTPEGSEVGDFLSLDLGGTNFRVMLVKVGEGEEGQWSVKTKHQMYSIPEDAMTGTAEMLFDYISECISDFLDKHQMKHKKLPLGFTFSFPVRHEDIDKGILLNWTKGFKASGAEGNNVVGLLRDAIKRRGDFEMDVVAMVNDTVATMISCYYEDHQCEVGMIVGTGCNACYMEEMQNVELVEGDEGRMCVNTEWGAFGDSGELDEFLLEYDRLVDESSANPGQQLYEKLIGGKYMGELVRLVLLRLVDENLLFHGEASEQLRTRGAFETRFVSQVESDTGDRKQIYNILSTLGLRPSTTDCDIVRRACESVSTRAAHMCSAGLAGVINRMRESRSEDVMRITVGVDGSVYKLHPSFKERFHASVRRLTPSCEITFIESEEGSGRGAALVSAVACKKACMLGQ
  soluble on expression in E. coli: soluble

## MSLKYEGSISINATKDQILKLLDNPDQVAQCFPGIKSFSKEGEEYKVVGVTGIGFIKGEYRANVRFEKIDDNKRKIIAKGTGMNSNVDIDAIAEALDGKINYSADVKVAGVLASVGARLMGSAVEKIINDLFNCIKERVIKEGHHHHHH
  soluble on expression in E. coli: soluble

## MSEAWITLATNDNYAQGALVLVHSLRTAGTTRKIHCLISNEVSAPVRKQLEEHFDDVSIVDVFNSNDSDNLRLIERPDLGVTFTKLHCWRLTQYTKCVFLDADTLVLRNADELFTRPDFSAASDIGWPDSFNSGVFVYVPNNETYRQLVDFAVTHGSYDGGDQGLLNDFFSNWRDLPSEHRLPFIYNMTAGAFYTYAAAYKRYGANTKIVHFIGSVKPWHGSAAVHTGEHFQQWQKIYHAHVNHTSRTNEHAAVFPSHHHTPEHRSHSADHPKIERKDSIVREIGNFVMHVVQSVNILPSYDTDANTSDSHRNNEPHKHDQQREEHHELPHNKFQTPHEESQDIVGSTDCFGSQMPKYNADSETDREVEQITNNTPCPAFVPFERREEYQAASPSTEERRAAWEAGQPDYLGRDAFVHIQEALNRALNE
  soluble on expression in E. coli: not soluble

## KILLKTSENGLDLEKPYYQAVIRRWQNKITDADTRRETVSAVSPKIILNDAPKWAVMLETEWQDGEWFEGRLAQEWLDKGVATNREQVAALETELKQKPAQLLIGVRAQTVPDRGVLRQIVRLSEAAQGGAVVQLLAEQGLSDDLSEKLEHWRNALAECGAAWLEPDRAAQEGRLKDQ
  soluble on expression in E. coli: not soluble
